Assay results taken from patent US20090068182A1 (ARIUS RESEARCH, published 2009).
Changes are numbered by the printed parent chain.

What was measured:
[1] = target: T1, AR40A746.2.3 antigen (CD9) in rhesus monkey normal tissues (rhesus monkey, UniProt I0FWF4 2-228); test: IHC on normal tissue micro arrays, 5 micrograms/mL
T1 construct: whole, on cells; also called rhesus monkey CD9
T1 sequence: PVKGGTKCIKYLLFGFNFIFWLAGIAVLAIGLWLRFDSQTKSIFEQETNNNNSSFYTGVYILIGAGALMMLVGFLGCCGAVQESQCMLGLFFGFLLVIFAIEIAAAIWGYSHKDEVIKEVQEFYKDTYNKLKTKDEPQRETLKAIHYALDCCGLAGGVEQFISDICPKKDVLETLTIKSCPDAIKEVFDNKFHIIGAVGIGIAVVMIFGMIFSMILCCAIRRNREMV
Procedure: (§1) IHC studies were conducted to evaluate the cross reactivity of AR40A746.2.3 to non human species tissues in order to find suitable preclinical toxicology model(s). All tissues used were formalin fixed paraffin embedded. The binding of AR40A746.2.3 to 8 normal tissues of cynomolgus and rhesus monkey (Biochain, CA, USA) and 10 normal tissues of rabbit, rat, mouse and sheep (Zymed laboratories Inc, CA, USA) was performed using tissue micro arrays. Previous experiments were conducted to optimize the IHC binding conditions of the antibody. Tissue sections were deparaffinized by drying in an oven at 58° C. for 1 hour and dewaxed by immersing in xylene 5 times for 4 minutes each in Coplin jars. Following treatment through a series of graded ethanol washes (100 to 75 percent) the sections were re-hydrated in water. The slides were immersed in 10 mM citrate buffer at pH 6 (Dako, Toronto, Ontario) then microwaved at high, medium, and low power settings for 5 minutes each and finally immersed in cold PBS. […] Immunoreactivity of the primary antibodies was detected/visualized with HRP conjugated secondary antibodies as supplied (Dako Envision System, Toronto, Ontario) for 30 minutes at room temperature. […]

[2] = target: T2, AR40A746.2.3 antigen (CD9) in mouse normal tissues (mouse, UniProt P40240 1-226); test: IHC on formalin fixed paraffin embedded normal tissue micro array
T2 construct: whole, on cells; also called mouse CD9
T2 sequence (looked up): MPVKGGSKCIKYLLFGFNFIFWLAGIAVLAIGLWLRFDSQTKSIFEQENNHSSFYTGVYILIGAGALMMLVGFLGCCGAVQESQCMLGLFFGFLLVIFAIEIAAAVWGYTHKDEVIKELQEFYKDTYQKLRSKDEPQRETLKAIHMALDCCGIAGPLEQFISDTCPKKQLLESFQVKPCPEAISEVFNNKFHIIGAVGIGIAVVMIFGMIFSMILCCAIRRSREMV
Procedure: as §1

[3] = target: T3, AR40A746.2.3 antigen (CD9) in rat normal tissues (rat, UniProt P40241 1-226); test: as above
T3 construct: whole, on cells; also called rat CD9
T3 sequence (looked up): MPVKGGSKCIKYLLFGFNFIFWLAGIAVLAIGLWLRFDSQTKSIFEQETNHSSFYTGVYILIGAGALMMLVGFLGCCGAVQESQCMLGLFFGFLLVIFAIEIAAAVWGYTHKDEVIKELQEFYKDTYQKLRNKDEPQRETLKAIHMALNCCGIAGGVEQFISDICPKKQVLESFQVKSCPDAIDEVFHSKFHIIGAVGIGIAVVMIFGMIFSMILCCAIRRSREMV
Procedure: as §1

[4] = target: T4, human CD9 (human, UniProt P21926 2-228); test: flow cytometry on melanoma WM9 cells, antibody at 20 micrograms/mL
T4 construct: whole, on cells; Endogenous CD9; It stood on human cell lines (FACS, cell ELISA) and in tissue sections (IHC); For immunoprecipitation and Western blot it was solubilised from BxPC-3 cell lysate (band of about 25 kDa); also called AR40A746.2.3 antigen; IDAC 141204-01 antigen
T4 sequence (looked up): T1 sequence with D150N, L175F, I177V
Procedure: (§2) All cell lines were obtained from the American Type Tissue Collection (ATCC, Manassas, Va.) except for the melanoma cell lines WM9, WM35, WM164, WM451, WM537, WM852, WM983, WM1205 and WM1232 which were obtained from Dr. David Hogg (University of Toronto, Toronto, Canada).
(§3) Cells were prepared for FACS by initially washing the cell monolayer with DPBS (without Ca⁺⁺ and Mg⁺⁺). Cell dissociation buffer (Invitrogen, Burlington, ON) was then used to dislodge the cells from their cell culture plates at 37° C. After centrifugation and collection, the cells were resuspended in DPBS containing MgCl₂ CaCl₂ and 2 percent fetal bovine serum at 4° C. (staining media) and counted, aliquoted to appropriate cell density, spun down to pellet the cells and resuspended in staining media at 4° C. in the presence of the test antibody (AR40A746.2.3) or control antibodies (isotype control, anti-EGFR). Isotype control and the test antibody were assessed at 20 micrograms/mL whereas anti-EGFR was assessed at 5 micrograms/mL on ice for 30 minutes. Prior to the addition of Alexa Fluor 546-conjugated secondary antibody the cells were washed once with staining media. […] Flow cytometric acquisition of the cells was assessed by running samples on a FACSarray™ using the FACSarray™ System Software (BD Biosciences, Oakville, ON). […]

[5] = target: T4, human CD9; test: flow cytometry on melanoma A375 cells, antibody at 20 micrograms/mL
Procedure: as §2, §3

[6] = target: T4, human CD9; test: flow cytometry on melanoma WM35 cells, antibody at 20 micrograms/mL
Procedure: as §2, §3

[7] = target: T4, human CD9; test: flow cytometry on melanoma A2058 cells, antibody at 20 micrograms/mL
Procedure: as §2, §3

[8] = target: T4, human CD9; test: flow cytometry on melanoma WM164 cells, antibody at 20 micrograms/mL
Procedure: as §2, §3

[9] = target: T4, human CD9; test: flow cytometry on melanoma WM451 cells, antibody at 20 micrograms/mL
Procedure: as §2, §3

[10] = target: T4, human CD9; test: flow cytometry on melanoma WM537 cells, antibody at 20 micrograms/mL
Procedure: as §2, §3

[11] = target: T4, human CD9; test: flow cytometry on melanoma WM852 cells, antibody at 20 micrograms/mL
Procedure: as §2, §3

[12] = target: T4, human CD9; test: flow cytometry on melanoma WM983 cells, antibody at 20 micrograms/mL
Procedure: as §2, §3

[13] = target: T4, human CD9; test: flow cytometry on melanoma WM1232 cells, antibody at 20 micrograms/mL
Procedure: as §2, §3

[14] = target: T4, human CD9; test: flow cytometry on colon cancer Lovo cells, antibody at 20 micrograms/mL
Procedure: (§4) David Hogg (University of Toronto, Toronto, Canada).
(§5) Cells were prepared for FACS by initially washing the cell monolayer with DPBS (without Ca⁺⁺ and Mg⁺⁺). Cell dissociation buffer (Invitrogen, Burlington, ON) was then used to dislodge the cells from their cell culture plates at 37° C. After centrifugation and collection, the cells were resuspended in DPBS containing MgCl₂ CaCl₂ and 2 percent fetal bovine serum at 4° C. (staining media) and counted, aliquoted to appropriate cell density, spun down to pellet the cells and resuspended in staining media at 4° C. in the presence of the test antibody (AR40A746.2.3) or control antibodies (isotype control, anti-EGFR). Isotype control and the test antibody were assessed at 20 micrograms/mL whereas anti-EGFR was assessed at 5 micrograms/mL on ice for 30 minutes. Prior to the addition of Alexa Fluor 546-conjugated secondary antibody the cells were washed once with staining media. The Alexa Fluor 546-conjugated antibody in staining media was then added for 30 minutes at 4° C. The cells were then washed for the final time and resuspended in fixing media (staining media containing 1.5 percent paraformaldehyde). Flow cytometric acquisition of the cells was assessed by running samples on a FACSarray™ using the FACSarray™ System Software (BD Biosciences, Oakville, ON). […]
(§6) FIG. 2 presents the mean fluorescence intensity fold increase above isotype control. […]

[15] = target: T4, human CD9; test: flow cytometry on colon cancer DLD-1 cells, antibody at 20 micrograms/mL
Procedure: as §2, §3

[16] = target: T4, human CD9; test: flow cytometry on colon cancer HT-29 cells, antibody at 20 micrograms/mL
Procedure: as §4, §5, §6

[17] = target: T4, human CD9; test: flow cytometry on breast cancer MCF-7 cells, antibody at 20 micrograms/mL
Procedure: as §2, §3

[18] = target: T4, human CD9; test: flow cytometry on colon cancer SW1116 cells, antibody at 20 micrograms/mL
Procedure: as §2, §3

[19] = target: T4, human CD9; test: flow cytometry on prostate cancer PC-3 cells, antibody at 20 micrograms/mL
Procedure: as §2, §3

[20] = target: T4, human CD9; test: flow cytometry on ovarian cancer OVCAR-3 cells, antibody at 20 micrograms/mL
Procedure: as §4, §5, §6

[21] = target: T4, human CD9; test: flow cytometry on prostate cancer DU-145 cells, antibody at 20 micrograms/mL
Procedure: as §4, §5, §6

[22] = target: T4, human CD9; test: flow cytometry on breast cancer MDA-MB-231 cells, antibody at 20 micrograms/mL
Procedure: as §2, §3

[23] = target: T4, human CD9; test: flow cytometry on non-cancer lung Hs888.Lu cells, antibody at 20 micrograms/mL
Procedure: as §2, §3

[24] = target: T4, human CD9; test: flow cytometry on non-cancer skin CCD-27sk cells, antibody at 20 micrograms/mL
Procedure: as §2, §3

[25] = target: T4, human CD9; test: flow cytometry on pancreatic cancer BxPC-3 cells, antibody at 20 micrograms/mL
Procedure: as §2, §3

B1: AR40A746.2.3 monoclonal antibody (hybridoma IDAC 141204-01) (antibody, V domains shown)
VH: DVQLQESGPGLVKPSQSLSLTCTVTGYSITSDYAWNWIRQFPGNKLEWMGYISYSGFTNYNPSLKSRISITRDTSKNQFFLQLSSVTTEDTATYFCEGGNYRYSWFPYWGQGTLVTVSA
VL: DIQMTQTTSSLSASLGDRVTISCSASQGISNYLNWYQQKPDGNVKLLIYYTSSLHSGVPSRFSGSGSGTDYSLTISNLEPEDIATYYCQQYSKLPYTFGGGTKLEIKR
notes: also called IDAC 141204-01 antibody; mAR40A746.2.3
binding result [1]: binds | binding result [2]: no binding (tested: 5 micrograms/mL) | binding result [3]: no binding (tested: 5 micrograms/mL) | mean fluorescence intensity fold increase above isotype control [4]: 4.8 fold | mean fluorescence intensity fold increase above isotype control [5]: 4.7 fold | mean fluorescence intensity fold increase above isotype control [6]: 13.8 fold | mean fluorescence intensity fold increase above isotype control [7]: 2.7 fold | mean fluorescence intensity fold increase above isotype control [8]: 3.3 fold | mean fluorescence intensity fold increase above isotype control [9]: 7 fold | mean fluorescence intensity fold increase above isotype control [10]: 2.6 fold | mean fluorescence intensity fold increase above isotype control [11]: 4.2 fold | mean fluorescence intensity fold increase above isotype control [12]: 3.9 fold | mean fluorescence intensity fold increase above isotype control [13]: 3.4 fold | mean fluorescence intensity fold increase above isotype control [14]: 31.6 fold | mean fluorescence intensity fold increase above isotype control [15]: 50.5 fold | mean fluorescence intensity fold increase above isotype control [16]: 80.5 fold | mean fluorescence intensity fold increase above isotype control [17]: 107 fold | mean fluorescence intensity fold increase above isotype control [18]: 13.3 fold | mean fluorescence intensity fold increase above isotype control [19]: 37.8 fold | mean fluorescence intensity fold increase above isotype control [20]: 64.9 fold | mean fluorescence intensity fold increase above isotype control [21]: 30.4 fold | mean fluorescence intensity fold increase above isotype control [22]: 19.8 fold | mean fluorescence intensity fold increase above isotype control [23]: 20.5 fold | mean fluorescence intensity fold increase above isotype control [24]: 8.7 fold | mean fluorescence intensity fold increase above isotype control [25]: 18.4 fold
